Data: patent US20210253725A1 (BIONTECH, published 2021)

T1: CD134 expressed on the cell surface of HT1080_OX40 cells (human, UniProt P43489 29-277)
T1 sequence (looked up): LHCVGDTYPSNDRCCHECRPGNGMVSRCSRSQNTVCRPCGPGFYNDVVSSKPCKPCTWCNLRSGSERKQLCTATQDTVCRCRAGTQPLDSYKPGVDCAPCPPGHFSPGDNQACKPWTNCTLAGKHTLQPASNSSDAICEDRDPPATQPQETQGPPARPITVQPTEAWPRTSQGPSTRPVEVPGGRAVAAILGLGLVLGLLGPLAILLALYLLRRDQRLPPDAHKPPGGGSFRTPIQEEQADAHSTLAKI

T2: CD134 protein (His-tagged, Sino Biological Inc. 10481-H08H) (human, UniProt P43489 29-216)
T2 construct: bought protein coated on ELISA plates; also called OX40; TNFRSF4; not shown: His tag
T2 sequence (looked up): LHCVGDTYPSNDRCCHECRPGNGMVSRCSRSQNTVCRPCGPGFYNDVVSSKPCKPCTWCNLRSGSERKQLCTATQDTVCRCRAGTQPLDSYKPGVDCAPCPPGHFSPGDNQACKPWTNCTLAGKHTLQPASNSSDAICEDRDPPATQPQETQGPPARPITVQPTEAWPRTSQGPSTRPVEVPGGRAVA


What was measured:
[1] = biological target: T1, CD134 expressed on the cell surface of …; experiment: cell-based or functional assay
[2] = biological target: T1, CD134 expressed on the cell surface of …; experiment: cell-based or functional assay; remark: listed apart in the source
[3] = biological target: T1, CD134 expressed on the cell surface of …; experiment: HT1080_OX40 cells, imaging; note: test concentration or dose not given here
[4] = biological target: T2, CD134 protein (His-tagged, Sino …); experiment: ELISA, coated His-tagged CD134; note: test concentration or dose not given here
Throughout, for Functional assay Cross-linked by F(ab′)2 fragment IL-8: test concentration or dose not given here.
Throughout, for Functional assay IL-8: test concentration or dose not given here.

Binder | Functional assay Cross-linked by F(ab′)2 fragment IL-8 [1] [abs. corr.] | Functional assay IL-8 [1] [abs. corr.] | EC 50 (IL-8 release, cross-linked) [2] [µg/mL] | Cellular binding assay [RFU] [3] [RFU] | ELISA [abs. corr.] [4] [abs. corr.]
P018.S.11.A.C04 (antibody, V domains shown, V regions on human Ig constant parts; also called AB134_29) VH: QSVEESGGRLVTPGTPLTLTCTVSGFSLGSYPMIWVRQAPGKGLEWIGYIDPGRGTTLYASWARGLFTISKTSTTVDLAMTSPTAADTATYFCARSYPGDGAGDLWGQGTLVTVSS VL: DVVMTQTPASVSEPVGGTVTIKCQASESISNYFSWYQQKPGQPPKLLIYGASTLESGVSSRFKGSGSGTDFTLTISDLESADAATYYCQCTYYGSGDVGGAFGGGTEVVVK | 2.19 | 0.253 | 0.785 | 406 | 1.96
P018.S.12.A.D06 (antibody, V domains shown, V regions on human Ig constant parts; also called AB134_71) VH: QSVEESGGRLVTPGTPLTLTCTVSGFSLSSYDMSWVRQAPGKGLEWIGIIYVSGTTDYASWAKGRFTISKTSTTVDLKMTSLTTEDTATYFCARDIYVDEIGCFDLWGQGTLVTVSS VL: DILMTQTPASVEVAVGGTVTIKCQASQNIRTYLAWYQQKPGQPPKLLIYRASTLESGVPSRFKGSGSGIEFSLTISDLESADAATYYCQNYDGGSSTGFGGGTEVVVK | 2.17 | 0.832 | 2.77 | 180 | 0.865
P018.S.04.A.B06 (antibody, V domains shown, V regions on human Ig constant parts; also called AB134_7) VH: QSVEESGGRLVTPGTFLTLTCTVSGFSLSSYAMNWVRQSPGKGLEWIGIIYSDDIAYYASWAKGRFTISKTSTTVTLKMTSLTVADTATYFCARGDGDRSIWSFDLWGPGTLVTVSS VL: AQVLTQTPSPVSAAVGGTVTISCQSSESVWNNNWLAWYQQKPGQPPNLLIYEASTLASGVSSRFKGSGSGTQFTLTVSEVQSDDAATYYCQGGYYDSSPIWTFGGGTEVVVK | 2.27 | 1.82 | 0.461 | 482 | 2.64
P018.S.04.A.H05 (antibody, V domains shown, V regions on human Ig constant parts; also called AB134_15) VH: QSVEESGGRLVTPGTPLTLTCTVSGFSLSSYAMGWVRQAPGKGLEWIGWINTAGGTDYTSWAKGRFTISKTSTTVDLKVTSLTTEDTATYFCARYDYYYFDLWGQGTLVTVSS VL: AQVLTQTASSVSAAVGGTVTISCQSSQSVYDNNWLAWYQQKPGQPPKLLIYSASTLASGVPSRFKGSGSGTEFTLTISDLESDDAAAYYCHGVYSGSIHAFGGGTEVVVI | 2.39 | 0.356 | 1.17 | 451 | 2.97
P018.S.12.A.F05 (antibody, V domains shown, V regions on human Ig constant parts; also called AB134_81) VH: QSLEESGGGLVQPGGSLKLSCKASGIDFSSYGVSWVRQAPGKGLEWIAYTYPDYGSTDYASWVNGRFTISLDNAQNTVFLQMTSLTAADTATYFCASSSNGWGGGFYFDLWGPGTLVTVSS VL: ALVMTQTPSPVSAAVGGTVTINCQASEDIYSNLAWFQQKPGQPPKLLIYGASTLASGVPSRFSGSGSGTEFTLTINDLKSDDAATYYCLGVYTYITTDPNAFGGGTEVVVK | 2.17 | 0.341 | 0.733 | 511 | 2.12
P018.S.04.A.A06 (antibody, V domains shown, V regions on human Ig constant parts; also called AB134_5) VH: QSLEESGGRLVTPGTPLTLTCTVSGFSLHNYNIQWVRQAPGKGLEWIGWILTDGSPYCANWAKGRFTISKTSTTVDLKITSPTIEDTATYFCARMGDYNINGLWGPGTLVTVSS VL: AQVLTQTPSSVSAAVGGTVTINCQSSQRIYNNDFLSWYQQKPGQPPKLLIYAASTLASGVPSRFKGSGSGTQFTLTISDLESDDAATYYCQGGYSSSGWYLPFGGGTEVVVK | 2.21 | 0.879 | 0.63 | 486 | 2.85
P018.S.04.A.D06 (antibody, V domains shown, V regions on human Ig constant parts; also called AB134_9) VH: QSLEESGGDLVKPGASLTLTCTASGFSFSSSYYMCWVRQAPGKGLEWIACIYTGDGASYYASWAKGRFTISKPSSTTVTLQVTSLTAADTATYFCGRGEYDNDWGFGLWGPGTLVTVSS VL: AYDMTQTPASVEVPVGGTVTINCQASEDISSYLSWYQQKPGQPPELLIYYASNLASGVSSRFKGSRSGTEFTLTISDLESADAATYYCQCSNYGGSWTFGGGTEVVVK | 2.3 | 1.01 | 0.355 | 510 | 2.49
P018.S.04.A.E06 (antibody, V domains shown, V regions on human Ig constant parts; also called AB134_11) VH: QSVEESGGRLVTPGTPLTLTCTVSGFSLSGYDMSWVRQAPGKGLEWIGYIYAGSTYYANWAKGRFTISKTSTTVDLKMTSPTTEDTATYFCTRVGAGYSGVWAYFNLWGPGTLVTVSS VL: AQVLTQTPSSVSAAVGGTVTINCQSSQSVDSDNYLAWYQQKPGQPPKLLIYDASKLASGVPSRFTGSGSGTQFTLTISGVQSDDAATYYCQGTYGNIGWYFAFGGGTEVVVK | 2.38 | 0.135 | 1.39 | 140 | 0.206
P018.S.11.A.A06 (antibody, V domains shown, V regions on human Ig constant parts; also called AB134_23) VH: QEQLVESGGGLVQPEGSLTLTCKASGFSFSSANCMHWVRQAPEKGLQWIGCVCIGDGTTYYASWVNGRFSISATSSTTVTIQMTSLTAADTATYFCARDLGLWGPGTLVTVSS VL: AIVMTQTPSSKSVPVGDTVTINCQASESVDKYTQCSWYQQKPGQPPKLLIYYASTLASGVPSRFKGSGSGTQFTLTISDVVSDDAATYYCSGYKGGSADMIAFGGGTELVVT | 2.16 | 0.732 | 2.09 | 537 | 1.84
P018.S.11.A.C03 (antibody, V domains shown, V regions on human Ig constant parts; also called AB134_28) VH: QSVEESGGRLVTPGTPLTLTCKVSGFSLSTYDMIWVRQAPAKGLEYIGIIGGSGFTYYANWAKGRFTISKTSTTVDLKITSPTTEDTATYFCARNNYDMWGPGTLVTVSS VL: DVVMTQTPASVSEPVGGTVTIKCQASQSISNELAWHQQKPGQRPNLLIYGASTLESGVPSRFKGSRSGTEYTLTISDLESDDAATYYCQCTYYGSSYVGGAFGGGTEVVVK | 2.19 | 0.586 | 0.217 | 507 | 1.53
P018.S.04.A.F06 (antibody, V domains shown, V regions on human Ig constant parts; also called AB134_13) VH: QSVEESGGRLVTPGTPLTLTCTVSGIDLSSSAMSWVRQAPGKGLEWIGIIGYNDFTYYANWAKGRFTISKTSTTVDLKMTSPTTEDTATYFCARGGSSSYSDYVFDPWGPGTLVTVSS VL: AFEMTQTPSSVSEPVGGTVTIKCQASQSIYSNLAWYQQKPGQRPKLLIYDASDLASGVPSRFSGSGYGTEFTLTISDLESADAATYYCQSYYGISSYGVAFGGGTEVVVK | 2.21 | 2.07 | 0.44 | 402 | 2.36
P018.S.11.A.A05 (antibody, V domains shown, V regions on human Ig constant parts; also called AB134_22) VH: QSVEESGGRLVTPGTPLTLTCTVSGFSLNSYDMSWVRQAPGKGLEWIGFISASGSIYFANWAKGRFTISKTSTTVDLKITSPTTEDTATYFCASDSYGWAYVYYFNLWGPGTLVTVSS VL: AVVLTQTPASVSAAVGGTVTINCRASEDIGSYLGWYQQKPGQPPKLLMHDASDLASGVPSRFSGSGSGTEFTLTISGVQSDDAATYYCQSAWYSSGTDKMAFGGGTEVVVK | 2.15 | 0.26 | 0.865 | 550 | 1.9
P018.S.12.A.E04 (antibody, V domains shown, V regions on human Ig constant parts; also called AB134_75) VH: QSVEESGGRLVTPGTPLTLTCTVSGFSLNSYDMSWVRQAPGKGLEWIGFISASGSIYFANWAKGRFTISKTSTTVDLKITSPTTEDTATYFCASDSYGWAYVYYFNLWGPGTLVTVSS VL: AVVLTQTPASVSAAVGGTVTINCRASEDVGSYLGWYQQRAGQPPKLLMHDASDLASGVPSRFSGSGSGTEFTLTISGVQSDDAATYYCQSAWLGTNTDKMAFGGGTEVVVK | 2.23 | 0.455 | 1.01 | 659 | 2.21
P018.S.12.A.F03 (antibody, V domains shown, V regions on human Ig constant parts; also called AB134_79) VH: QSLEESGGRLVAPGTPLTLTCTVSGIDLSRYAMGWVRQAPGKGLEYIGIIDDNDITYFATWAKGRFTISKTSTTLGLKITSPTTEDTATYFCARTADYADYSFGLWGPGTLVTVSS VL: DVVMTQTPTSVSEPVGGTVTIKCQASENIGNYLAWYQQRPGQRPKLLIYAASNLASGVPSRFKGSGSGTEYALTISDLESDDAATYYCQCTYDDSEYFVFGGGTEVVVK | 2.15 | 0.527 | 1.63 | 485 | 2.45
